Test results as given in patent publication US20230398116A1, “Agent for reversing resistance to anticancer drugs” (Y'S AC CO., LTD., priority 2020, published 2023).
Entries after “also recorded” stand apart in the source; their conditions may differ.

How the values were obtained:
[1] = tested on: endoplasmic reticulum stress signaling in MDA-MB-468 cells; test: qRT-PCR of endoplasmic reticulum stress markers in MDA-MB-468 cells; assay type: cell-based, human; conditions: MDA-MB-468, IL-26 30 ng/ml, gefitinib 20 μM, 6 hours
Method: (§1) E0771 cells, HCC70 cells, and MDA-MB-468 cells were cultured in RPMI1640 medium containing 10% FCS on a 6-well plate (Corning), and then stimulated with IL-26 (30 ng/ml) in the presence or absence of gefitinib for 3, 6, or 12 hours. The cells were harvested and total RNA was extracted. cDNA was synthesized using PrimeScript II first-strand cDNA synthesis kit (TaKaRa Bio, Japan) and oligo (dT) primers. The mRNA levels were measured by 7500 System SDS software (Applied Biosystems, Foster City, CA) and normalized to hypoxanthine phosphoribosyltransferase expression levels.

[2] = biological target: T1, EphA3/IL-26 interaction (Homo sapiens, UniProt Q9NPH9); test: Immunofluorescence of rhIL-26-Alexa 488 and cell surface EphA3 on E0771 cells; assay type: cell-based, mouse; conditions: E0771, FIGS. 17 and 18
T1 construct: purchased R&D Systems; host or cells: IL-26 was purchased; EphA3 is endogenous on E0771 cells
T1 sequence (Q9NPH9 22-171): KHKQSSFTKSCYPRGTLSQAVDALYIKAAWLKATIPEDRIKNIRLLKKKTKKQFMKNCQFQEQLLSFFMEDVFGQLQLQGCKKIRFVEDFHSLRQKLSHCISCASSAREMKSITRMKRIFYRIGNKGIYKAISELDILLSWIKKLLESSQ

[3] = tested on: T47D cells; test: MTT assay / cell proliferation (confluence) assay, T47D; assay type: cell-based, human; conditions: 48 hours
Method: Human and mouse breast cancer cells (1×10^4) were cultured in 10% FCS containing RPMI1640 medium on a 96-well flat bottom plate (Corning, Tewksbury, MA) at 37° C. for 24 hours, and then stimulated with IL-26 for 48 hours in the presence or absence of EGFR-TKI (gefitinib or erlotinib) at various concentrations, a signal inhibitor, and a neutralizing antibody. HUVECs were seeded in a 96-well flat bottom plate at 5×10^3 cells/well in a 2% FBS-containing EGM medium in which growth factors were reduced by half, and cultured at 37° C. for 12 hours. Thereafter, the medium was aspirated, and a recombinant human IL-26 dimer was adjusted to a final concentration of 10 ng/mL in a 2% FBS-containing EGM medium containing no growth factors, and added to the cells. […] The absorbance at 450 nm/595 nm was measured using Microplate Reader (Bio-Rad, Hercules, CA) and data was analyzed with Microplate Manager 6 software (Bio-Rad).
(§2) Human and mouse breast cancer cells (1×10^4) were cultured in RPMI1640 medium containing 10% FCS for 24 hours at 37° C. on a 96-well flat bottom plate (Corning), and then stimulated with IL-26 (30 ng/ml) in the presence or absence of various concentrations of gefitinib and a neutralizing antibody. Cell proliferation was measured as cell confluence using IncuCyte ZOOM (Essen Bioscience, Ann Arbor, MI).

[4] = tested on: E0771 cells; test: MTT assay / cell proliferation (confluence) assay, E0771; assay type: cell-based, mouse
Method: Human and mouse breast cancer cells (1×10^4) were cultured in 10% FCS containing RPMI1640 medium on a 96-well flat bottom plate (Corning, Tewksbury, MA) at 37° C. for 24 hours, and then stimulated with IL-26 for 48 hours in the presence or absence of EGFR-TKI (gefitinib or erlotinib) at various concentrations, a signal inhibitor, and a neutralizing antibody. HUVECs were seeded in a 96-well flat bottom plate at 5×10^3 cells/well in a 2% FBS-containing EGM medium in which growth factors were reduced by half, and cultured at 37° C. for 12 hours. Thereafter, the medium was aspirated, and a recombinant human IL-26 dimer was adjusted to a final concentration of 10 ng/mL in a 2% FBS-containing EGM medium containing no growth factors, and added to the cells. The stimulation was started in the presence or absence of control human IgG and anti-human IL-26 antibodies, and the cells were cultured for 48 hours. Thereafter, a concentration of 20 μl or 1/10 of a 5 mg/ml MTT solution (Tetrazolium monosodium salt, WST-8) was added to each well, and the plate was allowed to stand for 1 hour. The absorbance at 450 nm/595 nm was measured using Microplate Reader (Bio-Rad, Hercules, CA) and data was analyzed with Microplate Manager 6 software (Bio-Rad).
as §2

[5] = tested on: endoplasmic reticulum stress signaling in E0771 cells; test: qRT-PCR of endoplasmic reticulum stress markers in E0771 cells; assay type: cell-based, mouse; conditions: E0771, IL-26 30 ng/ml, gefitinib 20 μM, 6 hours
Method: as §1

[6] = tested on: HCC70 cells; test: MTT assay / cell proliferation (confluence) assay, HCC70; assay type: cell-based, human; conditions: 48 hours
Method in brief: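 Breast cancer cells (1×10^4/well) were grown 24 h at 37 °C in RPMI1640/10% FCS, then stimulated with IL-26 for 48 h ± gefitinib or erlotinib at various concentrations, with WST-8 read at 450/595 nm after 1 h. In the confluence format, cells got IL-26 (30 ng/ml) ± gefitinib, with proliferation imaged as cell confluence.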

[7] = tested on: endoplasmic reticulum stress signaling (DDIT3, ATF3, ATF4) in HCC70 cells; test: qRT-PCR and immunofluorescence of endoplasmic reticulum stress markers in HCC70 cells; assay type: cell-based, human; conditions: HCC70, IL-26 30 ng/ml, gefitinib 40 μM
Method: E0771 and HCC70 cells (1×10^5) were cultured for 24 hours in RPMI1640 medium with 10% FCS on Lab-Tek chamber slides (Thermo Fisher Scientific). The cultured cells were stimulated with Alexa Fluor 488 labeled IL-26 (30 ng/ml) in the presence or absence of recombinant human and mouse EphA3-Ig for 1 hour. HCC70 cells were stimulated with IL-26 (30 ng/ml) in the presence or absence of gefitinib (40 μM), a signal inhibitor, and a neutralizing antibody for 24 hours. Subcutaneous tumor samples obtained from mice were fixed in 4% paraformaldehyde (Thermo Fisher Scientific) and embedded in OCT compound (Tissue-Tek (registered trademark), Sakura Finetek, Japan). Cells and slides were immunostained with each antibody and observed using a Zeiss inverted microscope and Axiovision 2.0 program (Carl Zeiss, Germany). The fluorescence intensity was quantified with Image-J software (NIH). The images were captured using a 100×400× objective.
as §1

B1: IL-26: recombinant human IL-26 dimers for cell stimulation, R&D Systems (protein)
chain: KHKQSSFTKSCYPRGTLSQAVDALYIKAAWLKATIPEDRIKNIRLLKKKTKKQFMKNCQFQEQLLSFFMEDVFGQLQLQGCKKIRFVEDFHSLRQKLSHCISCASSAREMKSITRMKRIFYRIGNKGIYKAISELDILLSWIKKLLESSQ
B1 was tested, and the “mRNA expression levels of DDIT3, ATF3 and ATF4, IL-26 with gefitinib” value (from here on “mRNA expression levels of DDIT3”) [1] was “significantly decreased”, the “mRNA expression levels of IL-6, IL-8 and CXCL2, IL-26 with gefitinib” value [1] was “significantly reduced” and the “colocalization of exogenous IL-26 with cell surface EphA3” value [2] was “colocalized with the cell surface EphA3”. For the same molecule, the “effect of exogenous IL-26 on suppression of cell proliferation by gefitinib” value [3] was “inhibited”, the “effect of exogenous IL-26 on inhibitory effect of erlotinib” value ([4]; E0771, IL-26 30 ng/ml, erlotinib 30 μM or 50 μM, 48 hours, MTT) was “inhibited the inhibitory effect of erlotinib on cell proliferation” and the “effect of exogenous IL-26 on gefitinib-induced suppression of cell proliferation” value ([4]; E0771, IL-26 with gefitinib, 48 hours) was “significantly inhibited the cell proliferation suppression induced by gefitinib; also recorded: significantly suppressed in a dose-dependent manner”. For the same molecule, the “cell proliferation, IL-26 treatment alone” value ([4]; E0771, no gefitinib) was “did not affect cell proliferation”, the “mRNA expression levels of DDIT3” value [5] was “significantly decreased” and the “mRNA expression levels of endoplasmic reticulum stress-related cytokines/chemokines, IL-26 with gefitinib” value [5] was “significantly reduced”. The “effect of exogenous IL-26 on inhibitory effect of erlotinib” value ([6]; HCC70, IL-26 30 ng/ml, erlotinib 30 μM or 50 μM, MTT) was “inhibited the inhibitory effect of erlotinib on cell proliferation”, the “effect of exogenous IL-26 on gefitinib-induced suppression of cell proliferation” value ([6]; HCC70, IL-26 with gefitinib) was “significantly inhibited the cell proliferation suppression induced by gefitinib” and the “mRNA expression levels of IL-6, IL-8 and CXCL2, IL-26 with gefitinib” value ([7]; 6 hours, FIG. 34) was “significantly reduced”. For the same molecule, the “expression of DDIT3 at the protein level, IL-26 with gefitinib” value ([7]; 24 hours, FIG. 30) was “significant decrease” and the “mRNA expression levels of DDIT3” value ([7]; FIG. 28) was “clearly reduced”.
